These results are taken from patent US20120207670A1.

This assay deals with IL-12 (mouse; target of the rat anti-mouse antibodies in the in vitro neutralization studies) (mouse) (UniProt P43432). The assay is described as follows: cell-based or functional assay.
Chain of IL-12 (mouse; target of the rat anti-mouse antibodies in the in vitro neutralization studies) (mouse) (P43432 23-335, chain 1 of 2): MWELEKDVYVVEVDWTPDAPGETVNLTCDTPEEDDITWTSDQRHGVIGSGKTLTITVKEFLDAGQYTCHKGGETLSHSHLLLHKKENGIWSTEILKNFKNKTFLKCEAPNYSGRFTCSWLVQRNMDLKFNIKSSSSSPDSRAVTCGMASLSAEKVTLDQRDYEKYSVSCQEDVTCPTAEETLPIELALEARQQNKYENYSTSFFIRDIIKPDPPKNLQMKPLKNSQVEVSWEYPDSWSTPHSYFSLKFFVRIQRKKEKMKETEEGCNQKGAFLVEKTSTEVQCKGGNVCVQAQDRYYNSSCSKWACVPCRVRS
Chain of IL-12 (mouse; target of the rat anti-mouse antibodies in the in vitro neutralization studies) (mouse) (P43431 23-215, chain 2 of 2, further chain): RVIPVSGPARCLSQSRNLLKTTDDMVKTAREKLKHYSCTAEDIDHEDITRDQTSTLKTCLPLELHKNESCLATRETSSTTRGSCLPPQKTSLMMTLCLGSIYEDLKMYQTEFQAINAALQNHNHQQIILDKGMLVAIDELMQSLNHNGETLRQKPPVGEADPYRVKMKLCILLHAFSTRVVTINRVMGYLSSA

In the case of “C17.8 (rat anti-mouse IL-12/IL-23p40, IgG2a) (antibody)”, the in vitro neutralization of IL-12 (fold (against anti-p35 mAb C18.2)) was determined as 5.
